The values that follow are results of earlier work, collected in paper PMC12593480.

The target in this series is IL6 (Homo sapiens) (UniProt P05231).
Sequence of UniProt P05231 (P05231 30-212): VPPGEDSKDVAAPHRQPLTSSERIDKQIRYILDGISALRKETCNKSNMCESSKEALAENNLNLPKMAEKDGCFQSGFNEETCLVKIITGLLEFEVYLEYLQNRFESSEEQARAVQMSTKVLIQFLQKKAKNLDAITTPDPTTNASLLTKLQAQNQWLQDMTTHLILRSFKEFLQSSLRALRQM

For “IL6 receptor alpha (from UniProt P08887)”, the Kd was 9 nM.

The term Kd denotes the concentration at which binding is half-saturated.
